Consider 3 substances from patent publication US20140348865A1, “[…] ON AN HIV-1 V1V2 SITE-OF-VULNERABILITY” (The United States of America, as represented by the …, priority 2011, published 2014).

Where “and” joins values, the source holds several entries; their conditions need not be identical. Equal entries are not always repeated.

In one assay the target is Linked-Dimer ZM109. Description: SPR.
The target in assay [1] is 1FD6-ZM109 V1V2 scaffold. The assay is described as follows: SPR, scaffold immobilized, PG9 Fab injected. On the technique in general: In SPR one partner is held on a chip, and binding of the other changes the refractive index at the surface.
The target in assay [2] is 1JO8-ZM109 V1V2 scaffold. Description: SPR, scaffold immobilized, PG9 Fab injected.
Assay [3] concerns the target linked dimer of the gp120 V1/V2 domain with truncated V1 and V2 variable loops.
Another assay deals with Linked-Dimer Cap45. The assay is described as follows: SPR, sensorgram box labelled PG9 Fab.
The target in the next assay is Linked-Dimer A244. The assay is described as follows: SPR, sensorgram box labelled Flowcell 2: PG9 Fab.
For assay [4], the target named is 1FD6-ZM109 V1V2 scaffold.
Assay [5] addresses V3 loop-deleted gp120 of HIV-1 strain 16055 (HIV-1). Description: SPR, gp120 amine-coupled, Fab injected.
Assay [6] has as its target gp120 of HIV-1 strain 16055, full length (HIV-1). Description: SPR, gp120 amine-coupled, Fab injected.
The target of assay [7] is gp120 of HIV-1 strain AD244, full length (HIV-1). The assay is described as follows: SPR, gp120 amine-coupled, Fab injected.
In assay [8] the target is V3 loop-deleted gp120 of HIV-1 strain AD244 (HIV-1). Description: SPR, gp120 amine-coupled, Fab injected.
Assay [9] deals with gp120 of HIV-1 strain ZM109 (HIV-1). The assay is described as follows: SPR, antigen amine-coupled, Fab injected, 1:1 Langmuir.
The target in assay [10] is 1JO8-ZM109 V1V2 scaffold. The assay is described as above.
Assay [11] addresses ZM109 154-177 glycopeptide with Man5GlcNAc2 at N160 only. The assay is described as follows: SPR, Fab injected over biotinylated glycopeptide on a streptavidin chip.
In assay [12] the target is CAP45 154-177 glycopeptide with Man5GlcNAc2 at N160 and a complex glycan at N156. The assay is described as above.
The target in assay [13] is Cap45 154-177 glycopeptide with Man5GlcNAc2 at N156 and Man5GlcNAc2 at N160. Described as above.
The target in assay [14] is ZM109 154-177 glycopeptide with Man5GlcNAc2 at N160 and Man5GlcNAc2 at N173. The description is as above.
Assay [15] has as its target CAP45 154-177 glycopeptide with Man5GlcNAc2 at N160 only. Described as above.
Assay [16] has as its target ZM109 154-177 glycopeptide with Man5GlcNAc2 at N160 and a complex glycan at N173. The description is as above.
The target in assay [17] is V3 loop-deleted gp120 of HIV-1 strain AD244 (HIV-1). The assay is described as follows: SPR, heterogeneous ligand model, component 1, 84.5%.
Assay [18] deals with gp120 of HIV-1 strain 16055, full length (HIV-1). Description: SPR, heterogeneous ligand model, component 2, 34.0%.
Assay [19] has the same target. Description: SPR, heterogeneous ligand model, component 1, 66.0%.
Assay [20] addresses V3 loop-deleted gp120 of HIV-1 strain 16055 (HIV-1). The assay is described as follows: SPR, heterogeneous ligand model, component 1, 46.9%.
For assay [21] the target is unchanged. The assay is described as follows: SPR, heterogeneous ligand model, component 2, 53.1%.
For assay [22], the target named is V3 loop-deleted gp120 of HIV-1 strain AD244 (HIV-1). Description: SPR, heterogeneous ligand model, component 2, 15.5%.
A further assay concerns the target monomeric gp120. Description: FIG. 11; method not given.

Usually Kd stands for a measure of binding affinity in units of concentration. Higher therefore signals lower affinity. A word on the koff: it is the first-order rate constant of dissociation. A word on the kon: it is a measure of how fast the partners come together. A higher kon goes with faster complex formation. PG9 Fab: the equilibrium dissociation constant (Kd) was 1.61 µM with Linked-Dimer ZM109; 1.7 µM in assay [3]; 0.59 µM with Linked-Dimer Cap45; 1.8 µM with Linked-Dimer A244; 3.98 µM and 5.67 µM with 1FD6-ZM109 V1V2 scaffold [4]; 0.0709 µM in [5]. In addition, the Kd in assay [6] amounted to 0.049 µM; in [7], 0.044 µM; in [8], 0.102 µM; in assay [9], 0.0968 µM; in the assay with 1JO8-ZM109 V1V2 scaffold [10], 0.318 µM; in [11] it was 97 µM. Besides, the Kd in assay [12] turned out to be 5.7 µM; in assay [13] it was 45 µM; in assay [14] it was 97 µM; in assay [15] it was 50 µM; in assay [16], 5 µM. Further, the fold lower affinity than for wild-type ZM109 gp120 is 50 fold with 1FD6-ZM109 V1V2 scaffold [1] and 3 fold in the assay with 1JO8-ZM109 V1V2 scaffold [2]. The figures for the off-rate constant (koff) (in [9]; with 1JO8-ZM109 V1V2 scaffold [10]) were 0.00285 s⁻¹ and 0.00253 s⁻¹, respectively. Also, the kon in [9] turned out to be 29500 M⁻¹ s⁻¹; with 1JO8-ZM109 V1V2 scaffold [10] it was 7960 M⁻¹ s⁻¹.
Turning to PG16 Fab, the dissociation constant (Kd) turned out to be 3.37 µM in assay [17]; 0.399 µM in [18]; 0.37 µM in assay [19]; 2.07 µM in [20]; 6.13 µM in assay [21]; 0.0423 µM in assay [22]. Moreover, the equilibrium dissociation constant (Kd) in assay [7] stood at 4.92 µM; in assay [12], 32 µM; in assay [16], 20 µM.
As for “Hypersulfated PG9 Fab (co-expressed with TPST-1)”, in the assay with monomeric gp120, the fold increase of affinity by sulfation was 10 fold.
